The source of these data is patent publication US10442866 (BEIJING MABWORKS BIOTECH, dated 2019).

The target of test [1] is T1, human CD40-his (TNFRSF5, Sino Biological, Cat#:10774-H08H) (human, UniProt P25942 21-193).
T1 construct: bought protein; also called recombinant human CD40 (TNFRSF5); not shown: His tag
Nature of the test: ELISA on coated recombinant human TNFRSF protein, OD450. As for the experimental part:
(§1) ELISA assays were performed to determine the binding specificity of anti-OX40 antibodies to human OX40, in comparison to other human TNFRSF members with homologous amino acid sequences, following the protocol described in Example 2.
Background: An ELISA detects its analyte on a solid surface through an enzyme-linked reagent.

Test [2] has as its target T2, human HVEM-mFc (TNFRSF14, ACRO, Cat#: HVM-H5255) (human, UniProt Q92956 39-202).
T2 construct: bought protein; also called HVEM(TNFRSF14); not shown: mouse Fc (mFc)
T2 sequence (looked up): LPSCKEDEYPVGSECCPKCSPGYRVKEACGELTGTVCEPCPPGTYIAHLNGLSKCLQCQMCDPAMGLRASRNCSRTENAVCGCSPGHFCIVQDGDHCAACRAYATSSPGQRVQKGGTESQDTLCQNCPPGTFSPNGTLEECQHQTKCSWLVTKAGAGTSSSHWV
The test is described as above. As for the experimental part:
as §1

Test [3] concerns the target T3, human 4-1BB (TNFRSF9, ACRO, Cat#:41B-H522a) (human, UniProt Q07011 24-186).
T3 construct: bought recombinant protein
The description is as above. The protocol:
as §1

Test [4] deals with T4, human NGFR (TNFRSF16, Sino Biological, Cat#: 13184-H08H) (human, UniProt P08138 29-250).
T4 construct: bought recombinant protein
T4 sequence (looked up): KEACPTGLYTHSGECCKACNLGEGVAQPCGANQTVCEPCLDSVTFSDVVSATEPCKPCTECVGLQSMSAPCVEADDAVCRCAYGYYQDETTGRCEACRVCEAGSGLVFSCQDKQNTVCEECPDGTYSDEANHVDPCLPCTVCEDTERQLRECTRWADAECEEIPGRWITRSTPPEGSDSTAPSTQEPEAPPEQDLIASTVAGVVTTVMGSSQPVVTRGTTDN
Described as above. The protocol:
as §1

For test [5], the target named is T5, human DR6 (TNFRSF21, Sino Biological, Cat#: 10175-H08H) (human, UniProt O75509 42-349).
T5 construct: bought recombinant protein
T5 sequence (looked up): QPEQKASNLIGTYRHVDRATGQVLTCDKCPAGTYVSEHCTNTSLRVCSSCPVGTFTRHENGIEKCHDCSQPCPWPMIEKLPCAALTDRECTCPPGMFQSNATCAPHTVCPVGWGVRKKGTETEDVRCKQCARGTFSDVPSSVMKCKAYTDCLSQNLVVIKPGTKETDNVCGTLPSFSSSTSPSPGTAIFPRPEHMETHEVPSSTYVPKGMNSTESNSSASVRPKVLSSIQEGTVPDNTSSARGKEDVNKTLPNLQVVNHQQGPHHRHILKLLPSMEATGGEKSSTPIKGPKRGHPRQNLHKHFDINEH
Described as above. The protocol:
as §1

For test [6], the target named is full length OX40 ECD-mFc (containing CRD1/2/3/4). The experiment in a line: ELISA with recombinant mFc-tagged OX40 ECD proteins, OD450. An excerpt:
(§2) There are four individual cysteine enriched domains (CRD) in OX40 extracellular domain (ECD), namely CRD1, CRD2, CRD3 and CRD4, respectively. Based on the structure of OX40, four recombinant OX40 proteins were generated, i.e., the full-length OX40 ECD (containing CRD1/2/3/4) (SEQ ID NO.: 38), truncant 1-mFc (containing CRD2/3/4) (SEQ ID NO.: 39), truncant 2-mFc (containing CRD/3/4) (SEQ ID NO.: 40) and truncant 3-mFc (containing CRD/4) (SEQ ID NO.: 41). All the recombinant proteins were linked with a signal peptide (SEQ ID NO.: 42) at the N terminus for protein secretion and a mFc-tag (SEQ ID NO.: 43) at the C terminus for ELISA assay. DNA sequences were synthesized and subcloned into pcDNA3.1 vector. The expression and purification of the recombinant proteins were carried out according to the protocols in Example 10. ELISA assay was performed to assess binding capacity of mAbs to recombinant OX40 proteins, following the protocol in Example 2.

Test [7] concerns the target truncant 1-mFc (containing CRD2/3/4). Described as above.
Excerpt: as §2

The target of test [8] is truncant 2-mFc (containing CRD/3/4). The description is as above.
Excerpt: as §2

In test [9] the target is truncant 3-mFc (containing CRD/4). The description is as above.
Excerpt: as §2

Test [10] has as its target T6, rhesus OX40 expressed on HEK293A cells (rhesus, UniProt P43489 29-277 (human entry)).
T6 construct: also called HEK293A/rhOX40; HEK293A/rhesusOX40 cells
T6 chain: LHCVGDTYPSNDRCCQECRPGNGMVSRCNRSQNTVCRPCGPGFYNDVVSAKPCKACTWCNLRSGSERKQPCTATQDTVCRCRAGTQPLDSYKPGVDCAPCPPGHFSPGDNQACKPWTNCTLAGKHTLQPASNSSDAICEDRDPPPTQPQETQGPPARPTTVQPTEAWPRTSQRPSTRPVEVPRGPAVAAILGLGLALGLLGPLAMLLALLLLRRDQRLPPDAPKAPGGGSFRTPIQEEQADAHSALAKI
Nature of the test: FACS on HEK293A/rhesus OX40 cells, MFI (panel without title; monkey OX40 by the legend). The protocol:
Briefly, 10^5 HEK293A cells were seeded into each well of the 96-well plates and serially diluted anti-OX40 antibodies were added to the plates. After incubated at 4° C. for 1 hour, plates were washed 3 times with PBST. Then, an APC coupled Goat Anti-Mouse IgG (BioLegen, US, Cat#: 405308) diluted 500× was added to the plates. After incubation at 4° C. for 1 hour, the plates were washed with PBS for 3 times and then cell fluorescence was monitored using a FACS machine (BD).
Example 15 Humanized Anti-OX40 Antibodies Bound to Human or Rhesus OX40 Expressed on HEK293A Cells The humanized anti-OX40 antibodies were also tested for their ability of binding to HEK293A/huOX40 cells or HEK293A/rhOX40 cells, following the FACS analysis protocol as described in Example 5.

Sequence of truncant 2-mFc (containing CRD/3/4) (chain, as listed by the source limits assumed): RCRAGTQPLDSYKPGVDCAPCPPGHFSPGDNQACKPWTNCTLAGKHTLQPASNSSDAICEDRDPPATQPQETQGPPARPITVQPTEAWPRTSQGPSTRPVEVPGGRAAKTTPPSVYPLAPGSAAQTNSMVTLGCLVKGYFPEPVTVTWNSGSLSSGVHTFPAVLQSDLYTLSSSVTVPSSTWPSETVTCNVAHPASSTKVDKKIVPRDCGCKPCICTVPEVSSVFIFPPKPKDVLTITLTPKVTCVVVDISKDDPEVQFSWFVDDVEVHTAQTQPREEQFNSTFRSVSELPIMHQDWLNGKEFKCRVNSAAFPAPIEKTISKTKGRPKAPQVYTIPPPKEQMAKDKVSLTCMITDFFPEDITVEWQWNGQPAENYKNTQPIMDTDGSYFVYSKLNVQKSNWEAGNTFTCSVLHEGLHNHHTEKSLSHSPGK
Sequence of full length OX40 ECD-mFc (containing CRD1/2/3/4) (chain, as listed by the source limits assumed): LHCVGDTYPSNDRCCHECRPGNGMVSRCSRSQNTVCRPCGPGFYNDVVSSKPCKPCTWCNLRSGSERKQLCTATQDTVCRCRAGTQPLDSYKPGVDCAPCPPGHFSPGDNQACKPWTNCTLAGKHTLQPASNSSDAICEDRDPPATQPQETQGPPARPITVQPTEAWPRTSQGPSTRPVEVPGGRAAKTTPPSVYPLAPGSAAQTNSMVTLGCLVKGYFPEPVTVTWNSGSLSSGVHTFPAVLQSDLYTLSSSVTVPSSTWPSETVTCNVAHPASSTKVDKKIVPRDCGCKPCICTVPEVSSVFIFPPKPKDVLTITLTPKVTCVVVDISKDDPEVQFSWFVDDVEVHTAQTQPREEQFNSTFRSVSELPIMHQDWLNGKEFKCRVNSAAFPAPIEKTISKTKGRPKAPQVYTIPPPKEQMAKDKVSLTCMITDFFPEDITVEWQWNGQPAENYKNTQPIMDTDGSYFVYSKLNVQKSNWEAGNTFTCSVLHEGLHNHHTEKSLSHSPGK
Sequence of truncant 1-mFc (containing CRD2/3/4) (chain, as listed by the source limits assumed): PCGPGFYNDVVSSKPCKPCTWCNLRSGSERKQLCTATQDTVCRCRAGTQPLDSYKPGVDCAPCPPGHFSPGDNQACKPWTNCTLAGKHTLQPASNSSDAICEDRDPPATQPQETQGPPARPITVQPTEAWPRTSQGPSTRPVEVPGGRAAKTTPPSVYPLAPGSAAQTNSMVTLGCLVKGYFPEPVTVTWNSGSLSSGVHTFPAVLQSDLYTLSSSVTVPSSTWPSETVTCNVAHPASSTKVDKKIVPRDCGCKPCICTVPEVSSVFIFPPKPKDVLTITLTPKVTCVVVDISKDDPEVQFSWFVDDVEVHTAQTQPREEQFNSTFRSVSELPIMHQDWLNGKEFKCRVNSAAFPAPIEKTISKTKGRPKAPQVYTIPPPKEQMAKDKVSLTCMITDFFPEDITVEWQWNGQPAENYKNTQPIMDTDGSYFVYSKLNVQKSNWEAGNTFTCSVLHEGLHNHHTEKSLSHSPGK
T1 sequence (P25942 21-193 limits assumed): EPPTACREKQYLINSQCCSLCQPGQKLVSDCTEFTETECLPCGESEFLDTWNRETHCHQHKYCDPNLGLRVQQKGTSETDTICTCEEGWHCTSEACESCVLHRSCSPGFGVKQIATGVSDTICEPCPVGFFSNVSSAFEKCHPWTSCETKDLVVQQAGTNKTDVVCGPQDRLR
Sequence of truncant 3-mFc (containing CRD/4) (chain, as listed by the source limits assumed): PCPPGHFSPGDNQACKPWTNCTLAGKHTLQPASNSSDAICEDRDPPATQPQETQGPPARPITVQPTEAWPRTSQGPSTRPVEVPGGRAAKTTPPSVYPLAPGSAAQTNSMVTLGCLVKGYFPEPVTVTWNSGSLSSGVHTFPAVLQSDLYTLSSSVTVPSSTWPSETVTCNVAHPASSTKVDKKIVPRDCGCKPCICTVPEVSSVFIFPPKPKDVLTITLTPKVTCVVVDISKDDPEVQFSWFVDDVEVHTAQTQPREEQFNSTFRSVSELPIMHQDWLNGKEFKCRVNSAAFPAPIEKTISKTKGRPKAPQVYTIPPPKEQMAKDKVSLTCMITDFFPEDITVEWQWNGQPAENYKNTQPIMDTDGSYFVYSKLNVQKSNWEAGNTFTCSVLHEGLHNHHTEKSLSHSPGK

B1: 68C8-VH2VL3 (antibody, human IgG1, kappa, V domains shown)
VH: QVQLVQSGAEVKKPGASVKVSCKVSGDTFTSYWITWVRQRPGKGLEWMGDIHPGSGSTNNNEKFKNRVTMTVDTSTDTAYMELSSLRSEDTAVYYCATLRPYYFVYWGQGTLVTVSS
VL: DIQMTQSPSSLSASVGDRVTITCRASQDISNYLNWYQQKPGKTVKLLIYYTSRLLSGVPSRFSGSGSGTDYTLTISSLQPEDFATYFCQQGNTLPLTFGQGTRLEIKR
notes: humanized; also called 68C8-H2L3; 68C8H2L3
As to B1, the binding result is “no binding (tested: about 10000 ng/mL (log about 4))” in test [1]; “no binding (tested: about 10000 ng/mL (log about 4))” in [2]; “no binding (tested: about 10000 ng/mL (log about 4))” in [3]; “no binding (tested: about 10000 ng/mL (log about 4))” in [4]; “no binding (tested: about 10000 ng/mL (log about 4))” in test [5]; “binds” in test [6]. Moreover, the binding result is “binds” in test [7], “binds” in test [8], “no binding” in test [9] and “binds” in [10].

B2: 71H8-VH2VL3 (antibody, human IgG1, kappa, V domains shown)
VH: QVQLVQSGAEVKKPGASVKVSCKVSGYTFTSYWITWVRQRPGKGLEWMGDIYPGSGSTNQNEKFKSRVTMTVDTSTDTAYMELSSLRSEDTAVYYCATLRPYYFVYWGQGTLVTVSS
VL: DIQMTQSPSSLSASVGDRVTITCRASQDISNYLNWYQQKPGKTVKLLIYYTSRLLSGVPSRFSGSGSGTDYTLTISSLQPEDFATYFCQQGNTLPLTFGQGTRLEIKR
notes: humanized; also called 71H8-H2L3; 71H8H2L3
Take B2: the binding result is given as “no binding (tested: about 10000 ng/mL (log about 4))” in test [1]; “no binding (tested: about 10000 ng/mL (log about 4))” in test [2]; “no binding (tested: about 10000 ng/mL (log about 4))” in test [3]; “no binding (tested: about 10000 ng/mL (log about 4))” in test [4]; “no binding (tested: about 10000 ng/mL (log about 4))” in test [5]; “binds” in test [6]. The binding result in test [7] is reported as “binds”; in test [8] it was “binds”; in test [9], “no binding”; in test [10], “binds”.
